# B1: Peroxiredoxin-1 (Gallus gallus (Chicken)), P0CB50 (parent)
# chain: MSSGKAFIGKPAPDFTATAVMPDGQFKDIKLSDYRGKYVVFFFYPLDFTFVCPTEIIAYSDRADEFKKINCEIIGASVDSHFCHLAWINTPKKQGGLGTMKIPLVSDTKRVIAKDYGVLKEDEGIAYRGLFIIDEKGILRQITINDLPVGRSVDETLRLVQAFQFTDKHGEVCPAGWKPGSDTIKPDVQKSKEYFSKQK
# partner: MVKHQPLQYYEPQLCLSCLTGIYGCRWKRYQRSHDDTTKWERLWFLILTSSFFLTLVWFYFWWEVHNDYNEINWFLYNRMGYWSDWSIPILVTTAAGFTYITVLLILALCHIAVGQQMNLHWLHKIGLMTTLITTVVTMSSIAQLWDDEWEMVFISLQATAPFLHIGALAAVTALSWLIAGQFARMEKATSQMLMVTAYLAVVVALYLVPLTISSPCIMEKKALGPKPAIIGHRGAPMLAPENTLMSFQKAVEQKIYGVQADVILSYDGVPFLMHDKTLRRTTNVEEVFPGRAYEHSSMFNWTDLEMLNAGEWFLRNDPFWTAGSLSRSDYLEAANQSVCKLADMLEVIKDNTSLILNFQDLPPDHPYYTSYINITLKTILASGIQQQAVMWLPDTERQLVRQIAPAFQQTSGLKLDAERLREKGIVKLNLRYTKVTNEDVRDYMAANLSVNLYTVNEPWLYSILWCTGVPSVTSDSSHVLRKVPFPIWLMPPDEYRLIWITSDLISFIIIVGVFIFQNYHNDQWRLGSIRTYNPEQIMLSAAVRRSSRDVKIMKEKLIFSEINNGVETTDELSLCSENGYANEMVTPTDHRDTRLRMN
# Variants of: B1
# Details: with gdpd5_chick GDPD5, Q3KTM2
row,effect of a mutation on the interaction,Variant
1,disrupting interaction,C52S;C173S

# Source: IntAct's records for PubMed 19766572
